The target of test [1] is T1, Mycobacterium tuberculosis thiosulfate sulfurtransferase SseA (Mycobacterium tuberculosis, UniProt P9WHF7 1-297, RED-NHS dye on primary amines (lysine residues), degree of labeling ~0.5, in the MST experiment only).
T1 construct: Tag-free after TEV cleavage; labelled with the RED-NHS dye for MST, unlabelled in ITC and SEC; also called Mtb SseA; Rv3283
T1 sequence: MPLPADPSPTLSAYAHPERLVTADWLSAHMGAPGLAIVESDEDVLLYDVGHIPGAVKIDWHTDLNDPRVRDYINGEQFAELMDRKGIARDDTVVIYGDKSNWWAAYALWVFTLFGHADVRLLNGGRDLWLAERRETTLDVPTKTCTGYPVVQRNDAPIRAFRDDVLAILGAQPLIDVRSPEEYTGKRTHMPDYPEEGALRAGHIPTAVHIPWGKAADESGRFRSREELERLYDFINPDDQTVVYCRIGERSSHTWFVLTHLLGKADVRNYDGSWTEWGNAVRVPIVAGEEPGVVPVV
Description: MST; 10 nM SseA labelled with RED-NHS dye, label-free SufE Mtb titrated from 1.5 nM to 50 uM; 25 °C, 50 mM sodium phosphate pH 7.8, 0.05% Tween-20; Monolith NT.115. The conditions noted are these: both partners purified.

Test [2] deals with T1, Mycobacterium tuberculosis thiosulfate …. The experiment in a line: cell-based or functional assay.
Test [3] has the same target. Description: ITC; 10 uM SseA in the cell titrated with 100 uM SufE; PBS pH 8.0 (phosphate 20 mM, NaCl 150 mM, DTT 2 mM), 25 °C; single binding site model. Particulars: both partners purified. For orientation: Isothermal titration calorimetry measures the heat released or taken up as one component is titrated into another.

B1: Mycobacterium tuberculosis SufE-like protein Rv3284 (SufE Mtb) (natural protein)
chain: MTAPASLPAPLAEVVSDFAEVQGQDKLRLLLEFANELPALPSHLAESAMEPVPECQSPLFLHVDASDPNRVRLHFSAPAEAPTTRGFASILAAGLDEQPAADILAVPEDFYTELGLAALISPLRLRGMSAMLARIKRRLREAD
notes: Tag-free after TEV cleavage; also called SseE; not shown: His6, N-terminal, cleaved; GST, N-terminal, cleaved
Consider B1, for which, in test [1], the Kd – broadly, the free concentration of one partner at which half of the binding sites on the other are occupied at equilibrium, for simple one-to-one binding – was determined as 3 ± 0.7 µM. Besides, the “thiosulfate:cyanide sulfurtransferase activity of 10 uM SseA with increasing SufE Mtb (10-100 uM)” value in test [2] turned out to be 4 fold. Also, in test [3], binding was characterised by a dissociation constant (Kd) of 3.3 ± 0.6 µM; the dH is -11.6 kcal/mol; the stoichiometry N (as a rule, a count of units in the complex or per binding partner) amounted to 1.
